The values below come from patent publication US20220290132.

This series concerns the target SpCas9 nuclease (Streptococcus pyogenes) (UniProt Q99ZW2). Put plainly: EMSA. Conditions: 30 nM Cas9, 30 nM RNA, NEBuffer 3.1, 25 C then 37 C; negative control. In general terms: Mobility shift assays separate free from complexed probe on a gel.
Sequence of UniProt Q99ZW2 (Q99ZW2 whole entry): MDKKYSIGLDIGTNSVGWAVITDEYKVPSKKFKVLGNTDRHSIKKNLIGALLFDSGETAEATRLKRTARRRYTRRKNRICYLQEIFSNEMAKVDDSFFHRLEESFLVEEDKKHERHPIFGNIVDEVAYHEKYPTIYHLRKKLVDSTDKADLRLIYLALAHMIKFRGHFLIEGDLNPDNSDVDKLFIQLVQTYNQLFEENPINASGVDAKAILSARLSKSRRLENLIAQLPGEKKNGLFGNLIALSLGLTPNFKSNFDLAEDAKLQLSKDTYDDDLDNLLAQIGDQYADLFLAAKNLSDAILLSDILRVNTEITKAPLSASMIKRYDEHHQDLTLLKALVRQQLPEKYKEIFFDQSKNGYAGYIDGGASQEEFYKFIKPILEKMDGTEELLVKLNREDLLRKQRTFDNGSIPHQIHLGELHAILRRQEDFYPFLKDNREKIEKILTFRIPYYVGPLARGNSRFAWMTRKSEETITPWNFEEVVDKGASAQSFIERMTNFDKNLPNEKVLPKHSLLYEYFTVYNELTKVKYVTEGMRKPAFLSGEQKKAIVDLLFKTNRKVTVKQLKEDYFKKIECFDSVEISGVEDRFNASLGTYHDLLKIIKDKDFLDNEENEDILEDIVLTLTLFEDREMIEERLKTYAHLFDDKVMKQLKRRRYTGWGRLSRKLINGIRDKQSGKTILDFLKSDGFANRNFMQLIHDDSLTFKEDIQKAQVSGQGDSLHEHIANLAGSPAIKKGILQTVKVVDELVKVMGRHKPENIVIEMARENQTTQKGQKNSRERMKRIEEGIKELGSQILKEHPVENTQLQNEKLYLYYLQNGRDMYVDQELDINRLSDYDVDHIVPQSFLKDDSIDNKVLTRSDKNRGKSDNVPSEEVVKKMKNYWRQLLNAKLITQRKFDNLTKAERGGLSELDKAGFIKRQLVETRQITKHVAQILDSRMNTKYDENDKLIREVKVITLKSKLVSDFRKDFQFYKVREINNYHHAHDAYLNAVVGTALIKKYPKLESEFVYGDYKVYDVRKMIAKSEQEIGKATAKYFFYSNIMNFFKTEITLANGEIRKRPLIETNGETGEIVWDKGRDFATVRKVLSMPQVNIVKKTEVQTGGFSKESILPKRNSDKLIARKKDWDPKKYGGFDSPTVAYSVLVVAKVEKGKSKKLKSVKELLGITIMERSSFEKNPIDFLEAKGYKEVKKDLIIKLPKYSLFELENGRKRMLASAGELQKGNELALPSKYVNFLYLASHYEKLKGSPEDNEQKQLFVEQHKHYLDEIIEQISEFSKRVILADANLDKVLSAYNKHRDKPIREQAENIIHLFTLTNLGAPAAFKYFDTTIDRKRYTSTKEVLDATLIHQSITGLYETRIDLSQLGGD

“non-CRISPR structured RNA negative control” registered a binding signal of 55 % bound.
